Source: US20080125365A1 (UNIVERSITY OF IOWA RESEARCH FOUNDATION, published 2008)

Columns and labels:
[1] = molecular target: recombinant soluble TLR4 extracellular domain (amino acids 24-634), FLAG-tagged (UniProt O00206); experiment: co-expression with TLR4ECD, harvested medium incubated with [3H]LOS:sCD14, gel filtration
[2] = molecular target: T1, recombinant soluble TLR4 extracellular domain (amino acids 24-634), FLAG-tagged (UniProt O00206 24-634); experiment: [3H]LOS:MD-2 F126A incubated 30 min at 37 C with concentrated TLR4ECD medium, Mr ~190,000 complex by gel filtration, Scatchard analysis
T1 construct: range 24-634; Used as concentrated conditioned medium of HEK293T cells, not purified; also called TLR4ECD; FLAG-TLR4ECD; not shown: N-terminal FLAG tag from pFLAG-CMV
T1 sequence (O00206 24-634): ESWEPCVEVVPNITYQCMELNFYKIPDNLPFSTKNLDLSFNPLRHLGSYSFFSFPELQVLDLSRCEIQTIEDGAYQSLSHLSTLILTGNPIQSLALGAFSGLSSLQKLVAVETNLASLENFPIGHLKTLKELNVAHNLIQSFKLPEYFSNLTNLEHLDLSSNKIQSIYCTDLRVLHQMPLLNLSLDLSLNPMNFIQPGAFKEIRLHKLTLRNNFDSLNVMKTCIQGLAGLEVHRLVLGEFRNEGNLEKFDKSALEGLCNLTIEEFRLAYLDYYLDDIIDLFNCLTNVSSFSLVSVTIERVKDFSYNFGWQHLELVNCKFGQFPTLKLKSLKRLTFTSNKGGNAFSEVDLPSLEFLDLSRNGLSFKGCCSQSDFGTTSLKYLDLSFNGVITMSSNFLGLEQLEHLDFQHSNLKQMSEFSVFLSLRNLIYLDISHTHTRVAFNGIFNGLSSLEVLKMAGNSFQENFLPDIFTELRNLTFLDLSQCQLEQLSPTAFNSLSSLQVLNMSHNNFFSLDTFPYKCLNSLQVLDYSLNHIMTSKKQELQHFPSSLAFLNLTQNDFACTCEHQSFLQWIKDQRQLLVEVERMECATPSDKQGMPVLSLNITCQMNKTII

[3] = molecular target: T1, recombinant soluble TLR4 extracellular …; experiment: saturation binding of [3H]LOS:MD-2 (25,000 cpm/pmol) to soluble TLR4ECD, complex resolved by gel filtration
[4] = molecular target: T1, recombinant soluble TLR4 extracellular …; experiment: culture medium of HEK293T cells secreting TLR4ECD spiked with [3H]LOS:sCD14, Sephacryl S200 gel filtration
[5] = molecular target: T2, TLR4 stably expressed on HEK293 cells (HEK/TLR4) (UniProt O00206 24-839, limits assumed); experiment: overnight incubation with HEK/TLR4 cells at 37 C, cell-associated radioactivity by liquid scintillation
T2 construct: whole, on cells; Cells from Eisai Research Institute (Yang et al., 2000) or Invivogen; also called HEK293/TLR4; cellular TLR4
T2 sequence (O00206 24-839 limits assumed): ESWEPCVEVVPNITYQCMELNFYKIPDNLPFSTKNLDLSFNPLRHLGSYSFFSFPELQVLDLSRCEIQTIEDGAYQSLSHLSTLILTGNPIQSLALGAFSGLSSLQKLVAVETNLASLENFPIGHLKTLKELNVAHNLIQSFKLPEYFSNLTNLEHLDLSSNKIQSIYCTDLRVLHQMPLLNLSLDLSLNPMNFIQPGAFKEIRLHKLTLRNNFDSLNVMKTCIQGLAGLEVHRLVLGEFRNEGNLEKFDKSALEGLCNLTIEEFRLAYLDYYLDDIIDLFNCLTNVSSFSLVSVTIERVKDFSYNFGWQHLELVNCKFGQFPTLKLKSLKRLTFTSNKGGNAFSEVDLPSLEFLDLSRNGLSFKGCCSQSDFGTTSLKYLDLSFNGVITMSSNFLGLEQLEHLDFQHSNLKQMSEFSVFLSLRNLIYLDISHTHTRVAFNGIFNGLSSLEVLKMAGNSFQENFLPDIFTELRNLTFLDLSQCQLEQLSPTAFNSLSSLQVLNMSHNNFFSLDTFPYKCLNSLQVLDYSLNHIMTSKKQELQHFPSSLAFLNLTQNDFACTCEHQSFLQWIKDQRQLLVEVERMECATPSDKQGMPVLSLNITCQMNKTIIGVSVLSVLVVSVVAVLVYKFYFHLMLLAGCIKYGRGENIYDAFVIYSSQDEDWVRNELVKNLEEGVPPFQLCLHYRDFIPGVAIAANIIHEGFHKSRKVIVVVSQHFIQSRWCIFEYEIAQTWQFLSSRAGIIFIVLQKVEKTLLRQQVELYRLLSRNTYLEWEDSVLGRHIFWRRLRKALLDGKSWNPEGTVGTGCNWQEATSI

recombinant soluble TLR4 extracellular domain (amino acids 24-634), FLAG-tagged (UniProt O00206), sequence (O00206 24-634): as the sequence (O00206 24-634) above

human MD-2 Y131A.K132A double mutant (from UniProt Q9Y6Y9 19-160)
reduction of the yield of ([^3H]LOS:MD-2/TLR4ECD)2 against the single mutants [1]: 50%

B1: monomeric complex of wild-type LOS with human MD-2 F126A (ligand)
chain: QKQYWVCNSSDASISYTYCDKMQYPISINVNPCIELKRSKGLLHIFYIPRRDLKQLYFNLYITVNTMNLPKRKEVICRGSDDDYSFCRALKGETVNTTISFSFKGIKASKGKYKCVVEAISGSPEEMLFCLEFVILHQPNSN
notes: mature; Made in HEK293T cells (MD-2-FLAG-His) for analytical work and in High Five insect cells for preparative amounts; also called LOS:MD-2^F126A; [^3H]LOS:MD-2^F126A; not shown: C-terminal tag: pEF-BOS-MD-2^F126A-FLAG-His insert moved into pBAC11; which tag
Kd [2]: ~0.2 nM

B2: monomeric complex of wild-type (hexa-acylated) N. meningitidis LOS with wild-type human MD-2-His6 (ligand)
chain: QKQYWVCNSSDASISYTYCDKMQYPISINVNPCIELKRSKGLLHIFYIPRRDLKQLYFNLYITVNTMNLPKRKEVICRGSDDDYSFCRALKGETVNTTISFSFKGIKFSKGKYKCVVEAISGSPEEMLFCLEFVILHQPNSNHHHHHH
notes: mature; Mr ~25,000; Radiolabel (3H or 14C) is on the LOS; also called [^3H]LOS:MD-2; [^3H]LOS:MD-2-His6
Kd [3]: < 0.3 nM

B3: monomeric complex of LOS with soluble CD14 (other)
chain: TTPEPCELDDEDFRCVCNFSEPQPDWSEAFQCVSAVEVEIHAGGLNLEPFLKRVDADADPRQYADTVKALRVRRLTVGAAQVPAQLLVGALRVLAYSRLKELTLEDLKITGTMPPLPLEATGLALSSLRLRNVSWATGRSWLAELQQWLKPGLKVLSIAQAHSPAFSCEQVRAFPALTSLDLSDNPGLGERGLMAALCPHKFPAIQNLALRNTGMETPTGVCAALAAAGVQPHSLDLSHNSLRATVNPSAPRCMWSSALNSLNLSFAGLEQVPKGLPAKLRVLDLSCNRLNRAPQPDELPEVDNLTLDGNPFLVPGTALPHEGSMNSGVVPACARSTLSVGVSGTLVL
notes: Mr ~60,000; also called LOS:sCD14; [^3H]LOS:sCD14
binding result [4]: no binding (tested: 1 nM [^3H]LOS:sCD14)
binding result [5]: no binding (tested: 0.75 ng/ml ^3H-LOS)
